# Assay results reported in US20240254227A1 (Alector, published 2024).
# Target: T1, recombinant human CD300LB overexpressed on Jurkat cells (human, UniProt A8K4G0 18-201)
# T1 construct: also called huCD300LB; huCD300LB-expressing Jurkat cells
# T1 sequence: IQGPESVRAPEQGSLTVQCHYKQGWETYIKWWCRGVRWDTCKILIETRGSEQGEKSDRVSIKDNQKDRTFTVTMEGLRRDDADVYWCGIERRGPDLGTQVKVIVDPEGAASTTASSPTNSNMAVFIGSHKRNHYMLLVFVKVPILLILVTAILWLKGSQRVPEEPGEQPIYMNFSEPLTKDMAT
# Experiment: flow cytometry, geometric mean (APC-A), Jurkat cells overexpressing huCD300LB
# Description: Purified anti-CD300LB antibodies of the present disclosure were evaluated for their binding affinity to either Jurkat cells overexpressing recombinant huCD300LB or BaF/3 cells overexpressing recombinant muCD300LB. Binding of anti-CD300LB antibodies to the cells was determined as follows. Cells were harvested, washed, and labeled with propidium iodide for viability discrimination. After washing the cells with PBS, 1×10⁵ cells were aliquoted per well in 96-well U-bottom plates and incubated with 100 μL of purified anti-CD300LB antibody at various concentrations in FACS buffer (PBS+2% FBS). After this primary incubation, the supernatant was removed via centrifugation, the cells washed twice with 150 μL of ice-cold FACS buffer, and then incubated with the appropriate secondary antibody on ice for 30 minutes. Following the secondary antibody incubation, the cells were again washed twice with ice-cold FACS buffer and resuspended in a final volume of 200 L FACS buffer. Flow cytometry analysis was then performed using the FACSCanto system (BD Biosciences).
# To determine affinity, antibodies at increasing concentrations were used to stain Jurkat cells overexpressing huCD300LB and geometric MFI values measured by the flow cytometer were analyzed on Prism (Graphpad) software.
binder,measurement,value
"anti-CD300LB antibody CD-05 (antibody, V domains shown) VH: QVQLVQSGAEVKKPGASVKVSCKASGYTFSRYYINWVRQAPGQGLEWMGWINPNSGGTNYAQKFQGRVTMTRDTSTSTVYMELSSLRSEDTAVYYCTTDQLRFGKTGPYYGMDVWGQGTTVTVSS VL: DIQMTQSPSSLSASVGDRVTITCRASQNIGTYLNWYQQKPGKAPKLLIYAASSLQSGVPSRFSGSGSGTDFTLTISSLQPEDFATYYCQQSYSDTLTFGGGTKVEIK",EC50 (read off the curve),~20 nM
